Results as given in patent US20090209022A1 (AstraZeneca / MedImmune, published 2009).

Molecular target: the molecule itself
Assay: X-ray crystallography, partial model and electron density map

B1: H. influenzae pyrH UMP kinase (HI-1065), SeMet labelled, expressed from pSM145 (enzyme)
chain: GQPIYKRILLKLSGEALQGEDGLGIDPAILDRMAVEIKELVEMGVEVSVVLGGGNLFRGAKLAKAGMNRVVGDHMGMLATVMNGLAMRDSLFRADVNAKLMSAFQLNGICDTYNWSEAIKMLREKRVVIFSAGTGNPFFTTDSTACLRGIEIEADVVLKATKVDGVYDCDPAKNPDAKLYKNLSYAEVIDKELKVMDLSAFTLARDHGMPIRVFNMGKPGALRQVVTGTEEGTTIC
modifications: all methionines substituted with seleno-methionine (SeMet) in the crystallised protein
notes: Homohexamer (trimer of dimers); The crystal asymmetric unit holds eight chains: one hexamer and one dimer that gives a hexamer by crystallographic symmetry; The crystal also holds GTP (modelled as GDP) and phosphate
  binding result: binds
